Measurements from IntAct's records for PubMed 16824542.

B1: SH2B adapter protein 2 (Rattus norvegicus (Rat)), Q9Z200 (parent)
chain: MNGATPGSAAAPAPVPDWRQFCELHAQVAAVDFAHKFCRFLRDNPTYDTPDAGTSFSRHFAANFLAVFSEEVRRVLGTAADTMEPEPAVTSVTSALKTATYGHSRSSEDVSAHVATKARVRKGFSLRNMSLCVVDGVRDLWHRRASPEPEGGATPKTTEPVSEPRDKWTRRLRLARTLAAKVELVDIQREGALRFMVADDAASGPGGTAQWQKCRLLLRRAVAGERFRLEFFVPPKASRPKVSIPLSAIIEVRTTMPLEMPEKDNTFVLKVENGAEYILETIDSLQKHSWVADIQGCVDPGDSEEDTGLSCARGGCLASRVTSCSCELLTEADMPRPPETMTAVGAVVTAPHGRARDTVGESLAHVPLETFLQTLESSGGVSESNNTGDEGAELDPDAEAELELSDYPWFHGTLSRVKAAQLVLAGGPRSHGLFVIRQSETRPGECVLTFNFQGKAKHLRLSLNGHGQCHVQHLWFQSVFDMLRHFHTHPIPLESGGSADITLRSYVRAQGPPPDPGPAPNTAAPVPACWTEPAGQHYFSSLATATCPPTSPSNGAGASSSSGSSSSATSVPPRPAEGPLSARSRSNSTEHLLEAASGATEEPADATLGRARAVENQYSFY

Variants of: B1
Conditions: with insr_human INSR

Row | effect of a mutation on the interaction | Variant
1 | decreasing interaction | R442A
2 | disrupting interaction | R460A
3 | decreasing interaction | W475H
